The source of these data is US20150353647A1 (UNIVERSITY OF TENNESSEE RESEARCH FOUNDATION, published 2015).

The experiment deals with human tissue plasminogen activator (TPA) (human, UniProt P00750 36-562). Put plainly: cell-based or functional assay.
human tissue plasminogen activator (TPA), sequence (P00750 36-562 limits assumed): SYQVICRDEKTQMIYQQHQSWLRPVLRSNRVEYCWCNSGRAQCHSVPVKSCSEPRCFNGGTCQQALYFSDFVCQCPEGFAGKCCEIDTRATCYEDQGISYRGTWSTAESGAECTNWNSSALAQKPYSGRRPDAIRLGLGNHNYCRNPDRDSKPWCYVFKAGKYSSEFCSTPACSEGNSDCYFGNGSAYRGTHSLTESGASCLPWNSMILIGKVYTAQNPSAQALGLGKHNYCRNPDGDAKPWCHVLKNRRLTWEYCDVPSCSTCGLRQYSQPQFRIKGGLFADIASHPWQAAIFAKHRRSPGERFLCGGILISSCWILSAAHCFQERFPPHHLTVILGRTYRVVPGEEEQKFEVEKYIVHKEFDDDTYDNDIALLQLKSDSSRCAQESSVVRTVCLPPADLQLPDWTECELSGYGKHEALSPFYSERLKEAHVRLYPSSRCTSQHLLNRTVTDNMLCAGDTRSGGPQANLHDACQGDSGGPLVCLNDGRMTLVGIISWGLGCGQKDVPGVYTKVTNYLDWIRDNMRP

B1: stable mutant human PAI-1 (four amino acid substitutions, N150H, K154T, Q319L, and M354I) (other, UniProt P05121 24-402, looked up)
chain: VHHPPSYVAHLASDFGVRVFQQVAQASKDRNVVFSPYGVASVLAMLQLTTGGETQQQIQAAMGFKIDDKGMAPALRHLYKELMGPWNKDEISTTDAIFVQRDLKLVQGFMPHFFRLFRSTVKQVDFSEVERARFIINDWVKTHTKGMISHLLGTGAVDQLTRLVLVNALYFNGQWKTPFPDSSTHRRLFHKSDGSTVSVPMMAQTNKFNYTEFTTPDGHYYDILELPYHGDTLSMFIAAPYEKEVPLSALTNILSAQLISHWKGNMTRLPRLLVLPKFSLETEVDLRKPLENLGMTDMFRQFQADFTSLSDQEPLHVALALQKVKIEVNESGTVASSSTAVIVSARMAPEEIIIDRPFLFVVRHNPTGTVLFMGQVMEP
With B1, the “IC50, inhibition of TPA-induced fibrinolysis of human plasma clots (0.5 nM TPA, 2 hrs)” value amounted to 4.53 nM.
